Article PMC8615638, “Tumor Marker B7-H6 Bound to the Coiled Coil Peptide-Polymer Conjugate Enables Targeted Therapy by Activating Human Natural Killer Cells” (Biomedicines, 2021)
Several values for one entry are separate records, joined by “and”; a condition that tells them apart may be missing. Identical values can stand only once. Values belong to the molecule of their own block, whether it stands above or below them. Where no end group is shown, it is not given here.

B2: coiled coil B7-H6 (B7-H6CC) (ligand)
chain: ITGDLKVEMMAGGTQITPLNDNVTIFCNIFYSQPLNITSMGITWFWKSLTFDKEVKVFEFFGDHQEAFRPGAIVSPWRLKSGDASLRLPGIQLEEAGEYRCEVVVTPLKAQGTVQLEVVASPASRLLLDQVGMKENEDKYMCESSGFYPEAINITWEKQTQKFPHPIEISEDVITGPTIKNMDGTFNVTSSLKLNSSQEDPGTVYQCVVRHASLHTPLRSNFTGTVAALKEKVAALKEKVAALKEKVAALKEK
notes: additional N-terminal residues from the vector; B7-H6, extracellular domain, residues D25-T244 with stabilizing mutation C212S; GT and the (VAALKEK)4 coiled coil motif (peptide K), written out from -GT(VAALKEK)4H8G; C-terminus is -GT(VAALKEK)4H8G: the His8 is followed by a final G. In the flow cytometry the protein was labelled with AlexaFluor647 by NHS chemistry; Six N-glycosylation sites; also …

How the values were obtained:
NKp30 (Homo sapiens) = NKp30 (Homo sapiens) (UniProt O14931); assay: BLI; details: cited from earlier work
[1] = molecular target: B2; assay: AUC; sedimentation velocity, B7-H6CC titrated with NKp30; 20 °C, 48,000 rpm, 280 nm, SEC buffer; sw isotherm fitted with A + B <=> AB; details: both partners purified
[2] = molecular target: T1, wild-type B7-H6 (extracellular domain of B7-H6 without the coiled coil tag, C212S) (UniProt Q68D85 25-245, C212S); assay: ITC; NKp30 (124-182 µM) injected into a cell with the B7-H6 variant (15.6-25.0 µM); 25 °C; 10 mM HEPES, 150 mM NaCl, 10 mM NaN3, pH 7.5; fitted as A + B <=> AB, N = 1 - incompetent fraction of B7-H6; details: both partners purified
T1 construct: B7-H6, extracellular domain, residues D25-L245 with stabilizing mutation C212S; cloned as described previously [37]; also called non-modified B7-H6; soluble B7-H6 construct; source: HEK293T (suspension-adapted), transient transfection, secreted, purified (IMAC, SEC)
T1 sequence (looked up): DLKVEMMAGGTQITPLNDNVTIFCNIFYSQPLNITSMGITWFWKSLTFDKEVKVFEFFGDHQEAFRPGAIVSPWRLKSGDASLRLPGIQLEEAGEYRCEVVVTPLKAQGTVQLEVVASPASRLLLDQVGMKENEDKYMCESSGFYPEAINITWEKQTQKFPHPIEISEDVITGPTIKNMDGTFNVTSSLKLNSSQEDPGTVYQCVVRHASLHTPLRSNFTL

[3] = molecular target: B2; assay: as above; details: both partners purified
[4] = molecular target: T2, high-affinity B7-H6 (haB7-H6; S60Y, F82W, L129Y) (UniProt Q68D85 25-245, C212S | S60Y | F82W | L129Y); assay: as above; details: both partners purified
T2 construct: same doubt on the C-terminal limit (L245 or T244); also called untagged haB7-H6; source: HEK293T (suspension-adapted), transient transfection, secreted, purified (IMAC, SEC)
T2 sequence (looked up): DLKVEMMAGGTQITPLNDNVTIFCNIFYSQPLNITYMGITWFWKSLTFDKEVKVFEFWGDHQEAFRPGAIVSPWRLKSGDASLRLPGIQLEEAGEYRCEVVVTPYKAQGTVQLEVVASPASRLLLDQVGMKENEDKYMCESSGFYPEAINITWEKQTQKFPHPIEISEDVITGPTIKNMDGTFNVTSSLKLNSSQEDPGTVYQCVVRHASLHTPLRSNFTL

[5] = molecular target: T3, high-affinity coiled coil B7-H6 (haB7-H6CC; S60Y, F82W, L129Y) (UniProt Q68D85 25-244, C212S | S60Y | F82W | L129Y); assay: as above; details: both partners purified
T3 construct: additional N-terminal residues from the vector, as in B7-H6CC; GT and the (VAALKEK)4 coiled coil motif, as in B7-H6CC; C-terminus -GT(VAALKEK)4H8G; source: HEK293T (suspension-adapted), transient transfection, secreted, purified (IMAC, SEC); not shown: His8 (H8G), C-terminal, kept
T3 sequence: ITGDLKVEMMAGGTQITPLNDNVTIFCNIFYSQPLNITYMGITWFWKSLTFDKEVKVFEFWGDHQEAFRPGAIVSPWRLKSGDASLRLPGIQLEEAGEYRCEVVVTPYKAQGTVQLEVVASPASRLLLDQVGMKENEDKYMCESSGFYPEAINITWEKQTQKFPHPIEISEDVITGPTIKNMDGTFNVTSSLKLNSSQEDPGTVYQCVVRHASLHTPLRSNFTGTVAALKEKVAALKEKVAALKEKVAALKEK

[6] = molecular target: the molecule itself; assay: AUC; sedimentation velocity of B7-H6CC alone; 20 °C, 48,000 rpm, absorbance 280 nm, SEC buffer; monomer-dimer equilibrium
[7] = molecular target: B2; assay: AUC; sedimentation velocity, PolCC+ titrated with B7-H6CC; 20 °C, 42,000 rpm, 280 nm, SEC buffer; details: both partners purified
[8] = molecular target: B2; assay: flow cytometry on cells; PolCC mixed with AlexaFluor647-labelled B7-H6CC and scFvCC (AlexaFluor488-labelled or not); complexes carried to CAIX-expressing cells by scFvCC and B7-H6CC detected on the cells; 45 min on ice, 1 µM polymer; details: both partners purified

Molecule: B7-H6 IgV domain (from UniProt Q68D85)
- Kd (NKp30 (Homo sapiens)): 409 nM

Molecule: B2
- stoichiometry N [6]: 2

The next lines start with the values.

- Kd [1]: 895 nM
- stoichiometry N [1]: 0.78 and 1
- Kd [2]: 668 nM
- dH [2]: -11.5 kcal/mol
- stoichiometry N [2]: 0.88
- Kd [3]: 787 nM
- dH [3]: -11.2 kcal/mol
- stoichiometry N [3]: 0.74
- Kd [4]: 115 nM
- dH [4]: -12.7 kcal/mol
- stoichiometry N [4]: 0.91
- Kd [5]: 259 nM
- dH [5]: -11.8 kcal/mol
- stoichiometry N [5]: 0.65
B1: NKp30 ligand-binding domain (residues L19-E130, receptor ectodomain without stalk region) (receptor, UniProt O14931 19-130, looked up)
chain: LWVSQPPEIRTLEGSSAFLPCSFNASQGRLAIGSVTWFRDEVVPGKEVRNGTPEFRGRLAPLASSRFLHDHQAELHIRDVRGHDASIYVCRVEVLGLGVGTGNGTRLVVEKE
notes: cloned as described previously [37]; source: HEK293T (suspension-adapted), transient transfection, secreted, purified (IMAC, SEC)

- binding result [7]: binds
B3: PolCC+: HPMA copolymer of increased length conjugated with (VAALEKE)4 coiled coil peptides (other)
peptide: VAALEKEVAALEKEVAALEKEVAALEKE
modifications: also: attached to HPMA copolymer via copper-free click chemistry, site not given here
notes: (VAALEKE)4 coiled coil peptide, written out from the printed repeat; 130 kDa conjugate with approximately ten coiled coil peptides on each polymer chain (26% w/w); the polymer also carries biotin; Synthesis details are in File S1; source: synthetic peptide attached to HPMA copolymer (RAFT polymerization, copper-free click chemistry); purified by SEC; copies: 10

- binding result [8]: binds
B4: PolCC: pHPMA copolymer conjugated with (VAALEKE)4 coiled coil peptides (other)
peptide: VAALEKEVAALEKEVAALEKEVAALEKE
modifications: also: attached to pHPMA copolymer via azide-alkyne cycloaddition, site not given here
notes: (VAALEKE)4 coiled coil peptide, written out from the printed repeat; 56 kDa conjugate with approximately eight coiled coil peptides on each polymer chain (40% w/w); the polymer also carries biotin; The polymer itself is no protein; also called coiled coil peptide-polymer conjugate; pHPMA-(VAALEKE)4; source: synthetic peptide attached to HPMA copolymer by click chemistry, as described previously …
